The supplement of paper PMC7877785
± gives the uncertainty stated by the source.

Assay: self-splicing fitness, log relative to wild type (ln ratio); higher = more splicing; Tetrahymena group I intron in knt gene, E. coli kanamycin selection, DiMSum; sequences stand for … in CUCUCU…GGAGGGAAAAGUUAUCAGGCAUGCACCUGGUAGCUAGUCUUUAAACCAAUAGAUUGCAUCGGUUUAAAAGGCAAGACCGUCAAAUUGCGGGAAAGGGGUCAACAGCCGUUCAGUACCAAGUCUCAGGGGAAACUUUGAGAUGGCCUUGCAAAGGGUAUGGUAAUAAGCUGACGGACAUGGUCCUAACCACGCAGCCAAGUCCUAAGUCAACAGAUCUUCUGUUGAUAUGGAUGCAGUUCACAGACUAAAUGUCGGUCGGGGAAGAUGUAUUCUUCUCAUAAGAUAUAGUCGGACCUCUCCUUAAUGGGAGCUAGCGGAUGAAGUGAUGCAACACUGGAGCCGCUGGGAACUAAUUUGUAUGCGAAAGUAUAUUGAUUAGUUUUGGAGUACUCGUGGUCG
Outline: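 Pooled colonies went to amplicon sequencing on an Illumina HiSeq 2500 after six replicate transformations. The plates were LB agar with 100 μg/mL carbenicillin, 50 μM IPTG and 0.2% rhamnose, with or without 25 μg/mL kanamycin, incubated overnight at 37°C or 30°C. The E. coli BL21(DE3) library had all eight P1ex-region intron nucleotides randomised, the intron placed in the knt kanamycin-resistance gene on pET-22b(+). DiMSum fitness is the error-weighted combination of replicate fold changes, kanamycin against none, normalised to wild type.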

Sequence | self-splicing fitness (ln) (30 °C) | self-splicing fitness (ln) (37 °C)
AGCUAGCAAUAUUACGCACC | -0.833 ± 0.15 | -0.409 ± 0.19
UUAUAGCAAUAUUACGUCUG | -0.366 ± 0.11 | -0.511 ± 0.13
AUUAAGCAAUAUUACGGAAG | -3.07 ± 0.17 | -1.29 ± 0.2
GUCAAGCAAUAUUACGACCG | -3.14 ± 0.42 | –
AGAGAGCAAUAUUACGUUCG | -2.2 ± 0.16 | -2.07 ± 0.23
UCGGAGCAAUAUUACGGUAU | -3.24 ± 0.35 | -2.16 ± 0.26
ACUCAGCAAUAUUACGGUCU | -0.745 ± 0.057 | 0.311 ± 0.079
CCAAAGCAAUAUUACGUGGG | -2.85 ± 0.12 | -2.9 ± 0.17
CAUGAGCAAUAUUACGGGAG | -1 ± 0.095 | -1.54 ± 0.13
AUCAAGCAAUAUUACGCCCC | -1.45 ± 0.3 | 0.787 ± 0.27
GAUGAGCAAUAUUACGCCGU | – | -2.33 ± 0.46
CGAUAGCAAUAUUACGUUAC | -3.47 ± 0.28 | -2.17 ± 0.2
UUGCAGCAAUAUUACGGUCC | -4.25 ± 0.39 | -2.69 ± 0.26
AUUUAGCAAUAUUACGGAAU | -2.62 ± 0.28 | -2.49 ± 0.26
GGAUAGCAAUAUUACGAGGU | -2.75 ± 0.29 | -2.7 ± 0.18
CCAGAGCAAUAUUACGAAGC | -3.1 ± 0.24 | -2.71 ± 0.27
ACAUAGCAAUAUUACGACGA | -0.942 ± 0.068 | -0.294 ± 0.078
CCUGAGCAAUAUUACGGUCA | -2.92 ± 0.24 | -2.46 ± 0.33
ACGCAGCAAUAUUACGAGUG | -2.14 ± 0.052 | -1.32 ± 0.062
GGAAAGCAAUAUUACGCAAA | -2.42 ± 0.28 | -1.05 ± 0.25
UUCCAGCAAUAUUACGAUAA | 0.0765 ± 0.06 | 0.459 ± 0.071
AAUGAGCAAUAUUACGAGGG | -4.5 ± 0.29 | -1.98 ± 0.17
AUGAAGCAAUAUUACGGGAC | -2.09 ± 0.32 | -1.65 ± 0.43
CGGAAGCAAUAUUACGACCG | -3.04 ± 0.35 | -2.26 ± 0.45

Sequence | self-splicing fitness (ln) (30 °C) | self-splicing fitness (ln) (37 °C)
CCGUAGCAAUAUUACGGUUA | -3.29 ± 0.16 | -1.57 ± 0.12
GCCAAGCAAUAUUACGAUCC | -1.01 ± 0.14 | 0.392 ± 0.18
CUACAGCAAUAUUACGAGCG | -0.282 ± 0.076 | -0.442 ± 0.1
UGCGAGCAAUAUUACGUGCC | -3.9 ± 0.47 | -2.55 ± 0.33
ACAAAGCAAUAUUACGAACA | -2.3 ± 0.12 | -0.578 ± 0.1
GAUGAGCAAUAUUACGCAAG | -2.46 ± 0.38 | -1.51 ± 0.36
ACGGAGCAAUAUUACGGGCU | -2.7 ± 0.25 | -2.43 ± 0.27
CCUCAGCAAUAUUACGCCAU | -2.88 ± 0.35 | -1.8 ± 0.18
AACUAGCAAUAUUACGGGCC | -1.81 ± 0.12 | -1.36 ± 0.14
GGCUAGCAAUAUUACGGGGG | -3.9 ± 0.37 | -2.09 ± 0.21
GAUCAGCAAUAUUACGGAGC | -1.86 ± 0.094 | -0.552 ± 0.099
AUUCAGCAAUAUUACGCAUA | -0.701 ± 0.15 | -1.07 ± 0.14
UACCAGCAAUAUUACGGGAG | -1.64 ± 0.061 | -1.01 ± 0.071
CCACAGCAAUAUUACGCCUU | -3.21 ± 0.17 | -1.59 ± 0.14
GAACAGCAAUAUUACGAUGC | -0.47 ± 0.079 | 0.126 ± 0.12
CGGAAGCAAUAUUACGCGAA | -2.86 ± 0.27 | -1.46 ± 0.32
AACUAGCAAUAUUACGGGUU | -3.03 ± 0.12 | -2.82 ± 0.17
GAUUAGCAAUAUUACGAUGG | -3.28 ± 0.15 | -1.17 ± 0.12
GAGAAGCAAUAUUACGGUCG | -0.943 ± 0.11 | -0.253 ± 0.11
UUUCAGCAAUAUUACGUGCC | -3.44 ± 0.25 | -1.57 ± 0.23
AAGGAGCAAUAUUACGUCUG | -1.18 ± 0.15 | -0.52 ± 0.27
AUUGAGCAAUAUUACGUUUG | – | -1.91 ± 0.26
CUCAAGCAAUAUUACGGGUU | -3.49 ± 0.17 | -1.4 ± 0.13
UGGUAGCAAUAUUACGUACC | -2.93 ± 0.42 | -2.31 ± 0.49
